The results in this text go back to patent US20070036810A1, “Cyclic amp response element activator proteins and uses related thereto” (priority 2003, published 2007).

Series [1] has as its system minimal promoter linked to multiple copies of CRE. Description: CRE-Luc reporter co-transfection assay with the CREAP gene family. Type of series: cell-based. As to conditions: for CRE: level of expression of luciferase relative to empty vector: cotransfection, relative to empty pCMV-SPORT6 vector. From the text: (§1) The entire amino acid sequence for CREAP1 was used in a BLASTP search of a public NCBI database. Initially two public domain cDNAs (XM—117201 and FLJ00364) were identified that have significant homology to the CREAP1 coding region. The nucleotide sequence of XM—117201 was used in a BLASTN search (Altschul S. F. et al., Nucleic Acids Res. 25:3389-3402 (1997)) of a proprietary cDNA library EST database and 4 clones were identified that represent XM—117201 public sequence. All 4 clones were functionally tested upon co-transfection with the CRE-Luc and IL-8p-Luc reporters initially found to be induced by CREAP using methods similar to those disclosed above. Briefly, trypsinized HeLa cells are resuspended in complete growth media at 6×10^4 cells/ml and distributed into white 96-well plates (Costar) in the volume of 100 μl per well. Cells are left overnight in a tissue culture incubator at 37° C. and 5% CO2. pGL3B-IL-8p-Luc reporter plasmid or CRE-Luc reporter (BD Biosciences) as well as tested cDNAs are resuspended in OptiMEM I low serum media (GIBCO BRL) at 25 ng/ml. The reporter plasmids and cDNAs are then distributed into 96-well clean PCR plates (ABGene) at 4 μl/well and 3 μl/well respectively. Mixture containing Fugene 6 reagent (Roche Applied Bioscience) at 1.5 μl per transfection and pRL-SV40 (Promega) plasmid 20 ng per transfection is added in the volume of 10 μl per well of the 96-well PCR plate containing prediluted cDNAs. […]
(§2) The activity of firefly and Renilla luciferase is measured using the DualGlo Luciferase Assay System (Promega) following the protocol supplied by the manufacturer. Briefly, 115 μl of freshly reconstituted luciferase reagent is added to each well of the 96-well tissue culture plates with a Multidrop 384 and, after 15 minutes incubation, luminescence is read on a LUMINOSKAN Ascent Luminometer (Thermo Labsystems) with a 400 msec integration time. Subsequently, 115 μl of Stop-and-Glo reagent is added to each well of the 96-well tissue culture and, after 15 minutes incubation, luminescence is read on a LUMINOSKAN Ascent Luminometer with a 200 msec integration time. The activity of each tested cDNA is measured as a ratio of the corresponding firefly and Renilla luciferase activities.
To investigate this, the ability of CREAP2 and CREAP3 to activate gene expression driven by the IL-8 promoter and a CRE-dependent promoter was tested in co-transfection assays as disclosed above. Briefly, the levels of expression of a luciferase reporter driven by either the IL-8 promoter or a minimal promoter linked to 4 copies of CRE were determined after cotransfection with either an empty pCMV-SPORT6 expression vector or with the same vector carrying a cDNA for CREAP1, CREAP2 or CREAP3. […]

Series [2] relates to Interleukin-8 promoter. Description: IL-8 promoter luciferase reporter co-transfection assay with the CREAP gene family. The class given is cell-based, human. The conditions noted are these: cotransfection, relative to empty pCMV-SPORT6 vector.
Text: as §1, with “respectively.” for “respectively. Mixture containing Fugene 6 reagent (Roche Applied Bioscience) at 1.5 μl per transfection and pRL-SV40 (Promega) plasmid 20 ng per transfection is added in the volume of 10 μl per well of the 96-well PCR plate containing prediluted cDNAs.”
as §2, with “activities. […]” for “activities.”
(In general: In a reporter assay the amount or activity of a reporter protein is the signal.)

In series [3] the test system is GAL4 DNA binding sites (UAS-Luc, pFR-Luc reporter). Description: GAL4 DNA binding domain fusion transactivation assay (pFR-Luc) in HEK 293 cells. Type of series: cell-based. As to conditions: normalized to pCMV-BD vector. From the text:
To determine if CREAP proteins can act as a transcription activators, various regions of all 3 CREAP homologs (amino acids 300-650 of CREAP1, amino acids 296-694 of CREAP2 and amino acids 335-635 of CREAP3) were expressed as fusion proteins with the DNA binding domain of GAL4 and tested for the ability to activate expression of a reporter gene linked to GAL4 protein binding sequences (UAS-Luc (pFR-Luc reporter). Briefly, the indicated regions of CREAP1, CREAP2 and CREAP3 were amplified by PCR and subcloned in frame into pCMV-BD vector (Stratagene) encoding GAL4 DNA binding domain. Selected plasmids and empty vector (pCMV-SPORT6) were transfected into HEK 293 cells at 75 ng/well using Fugene6 transfection reagent (Roche) as described above. pFR-Luc reporter (Stratagene) encoding firefly luciferase gene driven by minimal promoter linked to 5 concatamerized GAL4 binding sites (UAS) was co-transfected at 100 ng/well. As a positive control, the reporter was also co-transfected with a plasmid encoding GAL4-CREB fusion protein (Stratagene) alone or in the presence of pFC-PKA an expression construct encoding catalytic subunit of protein kinase A (Stratagene) to activate the CREB kinase inducible activation domain. Fold induction was compared to the reporter's activity measured in the cells transfected with pCMV-BD an expression vector carrying GAL4 DNA binding domain only.
Expression constructs encoding full length CREAP1, CREAP2 and CREAP3 as well as a Gal4 DNA binding domain alone or fused with C-terminal portions of CREAP1, CREAP2 and CREAP3 were tested for the ability to induce expression of a luciferase gene controled by a minimal promoter linked to GAL4 DNA binding sites (pFRLuciferase). The data shown are normalized to the value seen with pCMV-BD vector co-transfected with pFR-Luc reporter.

Series [4] deals with GAL4-CREB fusion protein. Description: GAL4-CREB activation assay in HLR cell line. The class given is cell-based. The conditions noted are these: HLR cell line with integrated pFR-Luc reporter, normalized to pCMV-BD vector. How it is done:
To determine if CREAP proteins can directly activate CREB1 protein, the expression constructs of CREAP1, CREAP2 and CREAP3 were transfected individually or with GAL4-CREB plasmid (Stratagene) into HLR cell line (Stratagene) carrying genomic DNA integrated copies of pFR-Luc reporter. Briefly, HLR cells were maintained per manufacturer's instructions. Selected plasmids and either empty vector (pCMV-BD) or GAL4-CREB plasmid were transfected at 75 ng/well using Fugene6 transfection reagent (Roche) as described above. As a positive control pFC-PKA an expression construct encoding catalytic subunit of protein kinase A (Stratagene) was also co-trasfected with GAL4-CREB. Fold of activation was compared to the reporter's activity measured in the cells transfected with empty vector.
The ability of full length CREAP1, CREAP2 and CREAP3 to induce the activity of GAL4-CREB fusion protein (Stratagene) was tested. The data presented are normalized to the value seen with pCMV-BD vector. […] Note the fold induction obtained with positive control is lower when compared to the data from Table 6 when all the plasmids including the reporter were transiently transfected.

Series [5] has as its system human IL-8 promoter. Nature of the series: pGL2-IL-8p-Luc reporter inducibility in HEK 293 cells. Type of series: cell-based. As to conditions: expression construct co-transfected into HEK 293 cells, 48 hours post transfection. How it is done: A luciferase reporter controlled by a 1.5 kB IL-8 promoter containing fragment of human IL-8 promoter was tested for inducibility by known regulators of cytokine-mediated gene expression. pNF-κB-Luc (BD Biosciences) and pGL2-IL-8p-Luc reporters were co-transfected into HEK 293 cells with expression constructs encoding known activators of the NF-κB pathway, truncated MEKK (AA 360-672) (Stratagene) and a full length TRAF6 cDNA made according to conventional methods using a proprietary clone collection. Cells co-transfected with empty pCMV-Sport6 vector were either left untreated or treated with TNFα (50 ng/ml, for 16 hours). Luciferase activity was measured 48 hours post transfection. The pNF-κB-Luc reporter was used as a positive control.

B1: CREAP3: human CREAP family protein of 619 amino acids, SEQ ID NO 25; reconstructed full-length FLJ00364 cDNA (protein)
chain: MAASPGSGSANPRKFSEKIALHTQRQAEETRAFEQLMTDLTLSRVQFQKLQQLRLTQYHGGSLPNVSQLRSNASEFQPSFHQADNVRGTRHHGLVERPSRNRFHPLHRRSGDKPGRQFDGSAFGANYSSQPLDESWPRQQPPWKDEKHPGFRLTSALNRTNSDSALHTSALSTKPQDPYGGGGQSAWPAPYMGFCDGENNGHGEVASFPGPLKEENLLNVPKPLPKQLWETKEIQSLSGRPRSCDVGGGNAFPHNGQNLGLSPFLGTLNTGGSLPDLTNLHYSTPLPASLDTTDHHFGSMSVGNSVNNIPAAMTHLGIRSSSGLQSSRSNPSIQATLNKTVLSSSLNNHPQTSVPNASALHPSLRLFSLSNPSLSTTNLSGPSRRRQPPVSPLTLSPGPEAHQGFSRQLSSTSPLAPYPTSQMVSSDRSQLSFLPTEAQAQVSPPPPYPAPQELTQPLLQQPRAPEAPAQQPQAASSLPQSDFQLLPAQGSSLTNFFPDVGFDQQSMRPGPAFPQQVPLVQQGSRELQDSFHLRPSPYSNCGSLPNTILPEDSSTSLFKDLNSALAGLPEVSLNVDTPFPLEEELQIEPLSLDGLNMLSDSSMGLLDPSVEETFRADRL
modifications: human
notes: reconstructed full-length FLJ00364 cDNA
With B1, the “higher level of induction of gene expression compared to CREAP1 and CREAP2” value in series [1] (CRE and IL-8 promoter reporters) is on record as 2-4 fold. The “CRE: level of expression of luciferase relative to empty vector” value in series [1] stood at 71.4. Besides, the “IL-8: level of expression of luciferase relative to empty vector” value in series [2] came to 574.5714. The entries for the “Fold Induction” value in series [3] and in series [4] were 1.58 and 2.458, respectively.

B2: CREAP2: human CREAP family protein of 693 amino acids, SEQ ID NO 16 (protein)
chain: MATSGANGPGSATASASNPRKFSEKIALQKQRQAEETAAFEEVMMDIGSTRLQAQKLRLAYTRSSHYGGSLPNVNQIGSGLAEFQSPLHSPLDSSRSTRHHGLVERVQRDPRRMVSPLRRYTRHIDSSPYSPAYLSPPPESSWRRTMAWGNFPAEKGQLFRLPSALNRTSSDSALHTSVMNPSPQDTYPGPTPPSILPSRRGGILDGEMDPKVPAIEENLLDDKHLLKPWDAKKLSSSSSRPRSCEVPGINIFPSPDQPANVPVLPPAMNTGGSLPDLTNLHFPPPLPTPLDPEETAYPSLSGGNSTSNLTHTMTHLGISRGHGPGPGYDAPGLHSPLSHPSLQSSLSNPNLQASLSSPQPQLQGSHSHPSLPASSLACHVLPTTSLGHPSLSAPALSSSSSSSSTSSPVLGAPSYPASTPGASPHHRRVPLSPLSLLAGPADARRSQQQLPKQFSPTMSPTLSSITQGVPLDTSKLSTDQRLPPYPYSSPSLVLPTQPHTPKSLQQPGLPSQSCSVQSSGGQPPGRQSHYGTPYPPGPSGHGQQSYHRPMSDFNLGNLEQFSMESPSASLVLDPPGFSEGPGFLGGEGPMGGPQDPHTFNHQNLTHCSRHGSGPNIILTGDSSPGFSKEIAAALAGVPGFEVSAAGLELGLGLEDELRMEPLGLEGLNMLSDPCALLPDPAVEESFRSDRLQ
modifications: human
Regarding B2, the “CRE: level of expression of luciferase relative to empty vector” value in series [1] is recorded as 38.6. Moreover, the “IL-8: level of expression of luciferase relative to empty vector” value in series [2] is listed as 126.8571. For the same molecule, the entries for the “Fold Induction” value in series [3] and in series [4] were 2.47 and 2.435, respectively.

B3: TRAF6: full length TRAF6 cDNA expression construct; TNF receptor-associated factor 6 (protein, UniProt Q9Y4K3 1-522, looked up)
chain: MSLLNCENSCGSSQSESDCCVAMASSCSAVTKDDSVGGTASTGNLSSSFMEEIQGYDVEFDPPLESKYECPICLMALREAVQTPCGHRFCKACIIKSIRDAGHKCPVDNEILLENQLFPDNFAKREILSLMVKCPNEGCLHKMELRHLEDHQAHCEFALMDCPQCQRPFQKFHINIHILKDCPRRQVSCDNCAASMAFEDKEIHDQNCPLANVICEYCNTILIREQMPNHYDLDCPTAPIPCTFSTFGCHEKMQRNHLARHLQENTQSHMRMLAQAVHSLSVIPDSGYISEVRNFQETIHQLEGRLVRQDHQIRELTAKMETQSMYVSELKRTIRTLEDKVAEIEAQQCNGIYIWKIGNFGMHLKCQEEEKPVVIHSPGFYTGKPGYKLCMRLHLQLPTAQRCANYISLFVHTMQGEYDSHLPWPFQGTIRLTILDQSEAPVRQNHEEIMDAKPELLAFQRPTIPRNPKGFGYVTFMHLEALRQRTFIKDDTLLVRCEVSTRFDMGSLRREGFQPRSTDAGV
modifications: full-length
With B3, the “increase of IL-8 promoter-reporter activity” value in series [5] was determined as 4.9 times.
